In patent US12514920B1, “Respiratory syncytial virus mRNA vaccine, and preparation method therefor and use thereof” (Hangzhou Tianlong Pharmaceutical Co., Ltd., priority 2024, dated 2026):

Columns and labels:
[1] = tested on: RSV pre-F antibody (3C12); experiment: Binding of epitope Φ of RSV F antigen mutants by flow cytometry; settings: for RSV pre-F antibody (3C12) Epitope Φ (%) binding rate: flow cytometry; for Φ/II (%): ratio of epitope Φ (3C12) to epitope II (11A9) binding rate
Text: (§1) To investigate whether the RSV F antigen mutants have pre-fusion epitopes, an RSV pre-F antibody (3C12) (specifically binding to the RSV pre-F epitope […]) and an RSV F antibody (11A9) (binding to pre-F and post-F epitopes II) were detected by flow cytometry in this example, and RSV F protein mutants in the pre-F conformation were expected to bind to the antibodies tested.
(§2) • 293T cells (purchased from ATCC cell bank); RSV pre-F antibody (3C12), epitope […] (Novoprotein, Cat. No.: DA101); RSV F antibody (11A9), epitope II (Novoprotein, Cat. No.: DA091); • experimental groups: mRNA vaccines corresponding to the expressed antigens in Example 3;
(§3) • (1) Cell transfection: 293T cells were seeded at 1.3×10^5 cells/well in a 24-well plate. The next day, mRNA-LNP samples (containing 300 ng of mRNA) were added directly to the cells, and the mixture was uniformly mixed. • (2) Cell collection: The cells were taken out of the incubator after 16 h of transfection, the medium was pipetted off, 500 μL of 0.1% BSA solution was pipetted to wash the medium remaining in the well plate, taking care not to resuspend the cells, and the 0.1% BSA solution was pipetted off. 500 μL of 0.1% BSA solution was added to each well, and the cells were pipetted and transferred to a 1.5 mL centrifuge tube. • (3) Centrifugation: The cells were harvested by centrifugation at 400 g for 5 min at 4° C. in the dark, and the supernatant was discarded. • (4) Straining: 50.6 μL of RSV fluorescent antibody diluent was added to each of the control sample and the test samples to resuspend the cells, and the samples were incubated at 4° C. for 2 h in the dark. • (5) Cleaning: After the incubation was completed, 500 μL of 0.1% BSA solution was added to each tube, the cells were harvested by centrifugation at 400 g for 5 min at 4° C. in the dark, and the supernatant was discarded. This operation was repeated three times. • (6) Resuspension of cells: 200 μL of 0.1% BSA solution was added to each sample, and the cells were carefully pipetted to prepare a cell suspension. • (7) Detection on flow cytometer: The […] of RSV F mutants to antibodies were measured using flow cytometry, with 1×10^4 cells detected in each measurement.
(§4) The RSV pre-F antibody (3C12) used in this example specifically binds to the RSV pre-F epitope Φ, and the RSV F antibody (11A9) binds to the pre-F and post-F epitopes II. Whether the pre-fusion conformations of the RSV F mutants are stable can be further determined by detecting the binding of the epitope Φ and the epitope II on the mutants to corresponding epitopes of antibodies 3C12 and 11A9, respectively, by flow cytometry.

RSV F antibody (11A9) = experiment: Binding of epitope II of RSV F antigen mutants by flow cytometry; settings: epitope II, antibody 11A9
Text: as §1, §2, §3, §4

[2] = tested on: RSV pre-F antibody (3C12); type: physicochemical; settings: ELISA binding to 3C12; for Stress resistance parameter, Osmotic pressure (mM) 3000: high osmotic pressure 3000 mM; for Stress resistance parameter, Osmotic pressure (mM) 3000 / Stress resistance parameter, Osmotic pressure (mM) 10: room temperature; for Stress resistance parameter, Osmotic pressure (mM) 3000 / Stress resistance parameter, Osmotic pressure (mM) 10 / Stress resistance parameter, pH 3.5 / Stress resistance parameter, pH 10: 60 min; for Stress resistance parameter, Temperature (° C.) 50: incubation at 50° C. for 60 min; for Stress resistance parameter, Osmotic pressure (mM) 10: low osmotic pressure 10 mM; for Stress resistance parameter, pH 3.5: pH 3.5, room temperature; for Stress resistance parameter, pH 10: pH 10, room temperature; for Stress resistance parameter, Temperature (° C.) 4: storage at 4° C. for one week
Text: To investigate the stability of the RSV F antigen mutants under different pH, temperature, osmotic pressure and other conditions, the mutants were subjected to stress tests under different treatment conditions in this example.
• 293T cells (purchased from ATCC cell bank); • Primary antibody: RSV pre-F antibody (3C12), epitope Φ (purchased from Suzhou Novoprotein Scientific Co., Ltd. (hereinafter referred to as Novoprotein), Cat. No.: DA101); • Standard: RSV pre-F trimer protein (Novoprotein, Cat. No.: DRA230); • Secondary antibody: peroxidase AffiniPure goat anti-human IgG (H+L) (purchased from Yeasen Biotechnology (Shanghai) Co., Ltd. (hereinafter referred to as Yeasen), Cat. No.: N/A); • Experimental group: mRNA vaccines after screening in Example 4;
Coating: A 96-well microplate was coated with a working solution and incubated at 2 to 8° C. for 16 to 20 h.
Plate washing: Phosphate buffered saline PBST was added to each well, and the plate was washed 5 times using a plate washer and patted dry on absorbent paper.
Blocking: After a blocking solution was added, the […] were placed on a constant temperature microplate shaker and incubated at 400 rpm for 1.5 h at 37° C.
Plate washing: PBST was added to each well, and the plate was washed 5 times using a plate washer and patted dry on absorbent paper.
Primary antibody incubation: A primary antibody dilution was added to each well, and the plate was sealed with a sealing film, and then incubated at 400 rpm for 1.5 h at 37° C.
Secondary antibody incubation: A secondary antibody dilution was added to each well, and the plate was sealed with a sealing film, and then incubated at 400 rpm for 45 min at 37° C.
Color development: A chromogenic solution was added, and the plate was sealed with a sealing film, and then placed on a constant temperature microplate shaker and incubated at 400 rpm for 25 min at 37° C.
Reaction stopping: After the color development was completed, a stop buffer was added at […] to the microplate to stop the reaction.
Plate reading: Absorbance values (OD values) were read within 5 min using a multimode microplate reader, with dual wavelengths of 450 nm and 630 nm set.
In this example, stability screening of the mutants through different treatment conditions was defined as a stress test, including storage at 4° C. for one week; incubation at 50° C. for 60 min; treatment at room temperature under low osmotic pressure and high osmotic pressure conditions for 60 min; treatment at room temperature under acid and base conditions for 60 min. The binding of the mutants to the RSV pre-F antibody (3C12) recognizing the epitope Φ was detected by ELISA.

Row | Molecule | RSV pre-F antibody (3C12) Epitope Φ (%) binding rate [1] [%] | Φ/II (%) [1] [%] | RSV F antibody (11A9) Epitope II (%) binding rate (RSV F antibody (11A9)) [%] | Stress resistance parameter, Osmotic pressure (mM) 3000 [2] | Stress resistance parameter, Temperature (° C.) 50 [2] | Stress resistance parameter, Osmotic pressure (mM) 10 [2] | Stress resistance parameter, pH 3.5 [2] | Stress resistance parameter, pH 10 [2] | Stress resistance parameter, Temperature (° C.) 4 [2]
1 | YK-RSV-004 (protein) QNITEEFYQSTCSAVSKGYLGALRTGWYTSVITIELSNIKENKCNGTDAKVKLIKQELDKYKNAVTDLQLLMQSTPATGSGSAICSGVAVCKVLHLEGEVNKIKSALLSTNKAVVSLSNGVSVLTIKVLDLKNYIDKQLLPIVNKQSCPISNIETVIEFQQKNNRLLEITREFSVNAGVTTPVSTYMLTNSELLSLINDMPITNDQKKLMSNNVQIVRQQSYSIMCIIKEEVLAYVVQLPLYGVIDTPCWKLHTSPLCTTNTKEGSNICLTRTDRGWYCDNAGSVSFFPQAETCKVQSNRVFCDTMNSRTLPSEVNLCNVDIFNPKYDCKIMTSKTDVSSSVITSLGAIVSCYGKTKCTASNKNRGIIKTFSNGCDYVSNKGVDTVSVGNTLYCVNKQEGQSLYVKGEPIINFYDPLVFPSSEFDASISQVNEKINQSLAFIRKSDELLHNVNAGKSTTNIMITTIIIVIIVILLSLIAVGLLLY | 82.1 | 91.1 | 90.1 | 0.46 ± 0.13 | 0.48 ± 0.05 | 0.91 ± 0.23 | 0.97 ± 0.21 | 1.00 ± 0.27 | 0.72 ± 0.06
2 | YK-RSV-008 (protein) QNITEEFYQSTCSAVSKGYLGALRTGWYTCVITIELSNIKENKCNGTDAKVKLIKQELDKYKNAVTDLQLLMQSTPATGSGSAIASGVAVSKVLHLEGEVNKIKSALLSTNKAVVSLSNGVSVCTIKVLDLKNYIDKQLLPIVNKQSCSIPNIETVIEFQQKNNRLLEITREFSVNAGVTTPVSTYMLTNSELLSLINDMPITNDQKKLMSNNVQIVRQQSYSIMSIIKEEVLAYVVQLPLYGVIDTPCWKLHTSPLCTTNTKEGSNICLTRTDRGWYCDNAGSVSFFPQAETCKVQSNRVFCDTMNSRTLPSEVNLCNVDIFNPKYDCKIMTSKTDVSSSVITSLGAIVSCYGKTKCTASNKNRGIIKTFSNGCDYVSNKGVDTVSVGNTLYYVNKQEGQSLYVKGEPIINFYDPLVFPSSEFDASISQVNEKINQSLAFIRKSDELLHNVNAGKSTTNIMITTIIIVIIVILLSLIAVGLLLY | 83.9 | 90.7 | 92.5 | 0.33 ± 0.02 | 0.45 ± 0.08 | 0.81 ± 0.09 | 0.76 ± 0.21 | 0.99 ± 0.19 | 0.65 ± 0.06
3 | YK-RSV-013 (protein) QNITEEFYQSTCSAVSKGYLGALRTGWYTSVITIELSNIKENKCNGTDAKVKLIKQELDKYKNAVTDLQLLMQSTPACGSGSACASGVAVSKVLHLEGEVNKIKSALLSTNKAVVSLSNGVSVLTFKVLDLKNYIDKQLLPIVNKQSCSIPNIETVIEFQQKNNRLLEITREFSVNAGVTTPVSTYMLTNSELLSLINDMPITNDQKKLMSNNVQIVRQQSYSIMSIIKEEVLAYVVQLPLYGVIDTPCWKLHTSPLCTTNTKEGSNICLTRTDRGWYCDNAGSVSFFPQAETCKVQSNRVFCDTMNSRTLPSEVNLCNVDIFNPKYDCKIMTSKTDVSSSVITSLGAIVSCYGKTKCTASNKNRGIIKTFSNGCDYVSNKGVDTVSVGNTLYCVNKQEGQSLYVKGEPIINFYDPLVFPSSEFDASISQVNEKINQSLAFIRKSDELLHNVNAGKSTTNIMITTIIIVIIVILLSLIAVGLLLY | 89.3 | 94.7 | 94.3 | 0.43 ± 0.04 | 0.91 ± 0.23 | 0.59 ± 0.08 | 0.84 ± 0.19 | 0.92 ± 0.04 | 0.69 ± 0.11
